Assay results: patent US20070105152

Key:
[1] = target: T1, AcTGG(AcK)APR
T1 chain: TGGKAPR

[2] = target: T2, NH(AcK)II
T2 chain: NHKII

[3] = target: T3, Thr-Pro-AcLys-Asn-Ala (SIRT1 library hit, on bead)
T3 chain: TPKNAXXRM

[4] = target: T4, Ile-Phe-AcLys-Thr-Phe (SIRT1 library hit, on bead)
T4 chain: IFKTFXXRM

[5] = target: T5, Leu-Asn-AcLys-Asp-Gln (SIRT1 library hit, on bead)
T5 chain: LNKDQXXRM

[6] = target: T6, His-Trp-AcLys-Thr-His (SIRT1 library hit, on bead)
T6 chain: HWKTHXXRM

[7] = target: T7, AcGG(AcK)APR
T7 chain: GGKAPR

[8] = target: T8, AcTGG(AcK)APRK
T8 chain: TGGKAPRK

[9] = target: T9, Me2Arg-Phe-AcLys-Pro-Glu (SIRT1 library hit, on bead)
T9 chain: RFKPEXXRM

[10] = target: T10, Me2Arg/Pro-Me2Arg/Pro-AcLys-Ser-Ile (SIRT1 library hit, on bead)
T10 chain: RPKSIXXRM

[11] = target: T11, Gly-Thr-AcLys-Thr-Gly (SIRT1 library hit, on bead)
T11 chain: GTKTGXXRM

[12] = target: T12, Pro-Ile-AcLys-Glu-Gln (SIRT1 library hit, on bead)
T12 chain: PIKEQXXRM

[13] = target: T13, Ile-Tyr-AcLys-Asn-Asp (SIRT1 library hit, on bead)
T13 chain: IYKNDXXRM

[14] = target: T14, Pro/Trp-Pro/Trp-AcLys-Ile-Thr (SIRT1 library hit, on bead)
T14 chain: WPKITXXRM

[15] = target: T15, Nle-Nle-AcLys-Gln-Gln (SIRT1 library hit, on bead)
T15 chain: MMKQQXXRM

[16] = target: T16, WH(AcK)FQ
T16 chain: WHKFQ

[17] = target: T17, QNle(AcK)GF
T17 chain: QLKGF

[18] = target: T18, Pro-Gly-AcLys-Leu-Tyr (SIRT1 library hit, on bead)
T18 chain: PGKLYXXRM

[19] = target: T19, WP(AcK)QQ
T19 chain: WPKQQ

[20] = target: T20, Asn-His-AcLys-Ile-Ile (SIRT1 library hit, on bead)
T20 chain: NHKIIXXRM

[21] = target: T21, AcKSTGG(AcK)AP
T21 chain: KSTGGKAP

[22] = target: T22, Ser-Tyr-AcLys-Gln-Trp (SIRT1 library hit, on bead)
T22 chain: SYKQWXXRM

[23] = target: T23, Ala-Val-AcLys-Phe-Nle (SIRT1 library hit, on bead)
T23 chain: AVKFMXXRM

[24] = target: T24, Trp-His-AcLys-Phe-Gln (SIRT1 library hit, on bead) (not fully specified)
T24 chain: WHKFQXXRM

[25] = target: T25, Asp-Val-AcLys-Nle-His (SIRT1 library hit, on bead)
T25 chain: DVKMHXXRM

[26] = target: T26, AcSTGG(AcK)AP
T26 chain: STGGKAP

[27] = target: T27, Ser-Asp-AcLys-Tyr-His (SIRT1 library hit, on bead)
T27 chain: SDKYHXXRM

[28] = target: T28, Asn-His-AcLys-Leu-Leu (SIRT1 library hit, on bead)
T28 chain: NHKLLXXRM

[29] = target: T29, Gly-Tyr-AcLys-Pro-Thr (SIRT1 library hit, on bead)
T29 chain: GYKPTXXRM

[30] = target: T30, AcGG(AcK)APRK
T30 chain: GGKAPRK

[31] = target: T31, AcTGG(AcK)AP
T31 chain: TGGKAP

[32] = target: T32, Me2Arg-Ala-AcLys-Nle-Asp (SIRT1 library hit, on bead)
T32 chain: RAKMDXXRM

[33] = target: T33, Me2RP(AcK)QF
T33 chain: RPKQF

[34] = target: T34, HK(AcK)LM
T34 chain: HKKLM

[35] = target: T35, Val-Gln-AcLys-Ile-Ile (SIRT1 library hit, on bead) (not fully specified)
T35 chain: VQKIIXXRM

[36] = target: T36, AcGG(AcK)AP
T36 chain: GGKAP

[37] = target: T37, Trp-Pro-AcLys-Trp-Gln (SIRT1 library hit, on bead) (not fully specified)
T37 chain: WPKWQXXRM

[38] = target: T38, AcSTGG(AcK)APR
T38 chain: STGGKAPR

[39] = target: T39, Me2RP(AcK)SI
T39 chain: RPKSI

[40] = target: T40, Trp-Gly-AcLys-Ser-Pro (SIRT1 library hit, on bead)
T40 chain: WGKSPXXRM

[41] = target: T41, Me2Arg-Pro-AcLys-Gln-Phe (SIRT1 library hit, on bead)
T41 chain: RPKQFXXRM

[42] = target: T42, Phe-Glu-AcLys-Tyr-Me2Arg (SIRT1 library hit, on bead)
T42 chain: FEKYRXXRM

[43] = target: T43, AY(AcK)EV
T43 chain: AYKEV

[44] = target: T44, Me2Arg/Trp-Me2Arg/Trp-AcLys-Ile-Thr (SIRT1 library hit, on bead)
T44 chain: RWKITXXRM

[45] = target: T45, Thr-Glu-AcLys-Gln-Glu (SIRT1 library hit, on bead)
T45 chain: TEKQEXXRM

[46] = target: T46, Trp-Trp-AcLys-His-Gly (SIRT1 library hit, on bead) (not fully specified)
T46 chain: WWKHGXXRM

[47] = target: T47, Gln-Pro-AcLys-Gln-Ile (SIRT1 library hit, on bead)
T47 chain: QPKQIXXRM

[48] = target: T48, Asp-Ser-AcLys-Gly-Ala (SIRT1 library hit, on bead)
T48 chain: DSKGAXXRM

[49] = target: T49, EL(AcK)AS
T49 chain: ELKAS

[50] = target: T50, VQ(AcK)II
T50 chain: VQKII

[51] = target: T51, LNle(AcK)VG
T51 chain: LLKVG

[52] = target: T52, QP(AcK)QI
T52 chain: QPKQI

[53] = target: T53, AcGG(AcK)APRKQ
T53 chain: GGKAPRKQ

[54] = target: T54, WH(AcK)QQ
T54 chain: WHKQQ

[55] = target: T55, Trp-His-AcLys-Phe-Glu (SIRT1 library hit, on bead) (not fully specified)
T55 chain: WHKFEXXRM

[56] = target: T56, His-Me2Arg-AcLys-Nle-Pro (SIRT1 library hit, on bead)
T56 chain: HRKMPXXRM

B1: human NAD+-dependent deacetylase SIRT1 (protein)
chain: MADEAALALQPGGSPSAAGADREAASSPAGEPLRKRPRRDGPGLERSPGEPGGAAPEREVPAAARGCPGAAAAALWREAEAEAAAAGGEQEAQATAAAGEGDNGPGLQGPSREPPLADNLYDEDDDDEGEEEEEAAAAAIGYRDNLLFGDEIITNGFHSCESDEEDRASHASSSDWTPRPRIGPYTFVQQHLMIGTDPRTILKDLLPETIPPPELDDMTLWQIVINILSEPPKRKKRKDINTIEDAVKLLQECKKIIVLTGAGVSVSCGIPDFRSRDGIYARLAVDFPDLPDPQAMFDIEYFRKDPRPFFKFAKEIYPGQFQPSLCHKFIALSDKEGKLLRNYTQNIDTLEQVAGIQRIIQCHGSFATASCLICKYKVDCEAVRGDIFNQVVPRCPRCPADEPLAIMKPEIVFFGENLPEQFHRAMKYDKDEVDLLIVIGSSLKVRPVALIPSSIPHEVPQILINREPLPHLHFDVELLGDCDVIINELCHRLGGEYAKLCCNPVKLSEITEKPPRTQKELAYLSELPPTPLHVSEDSSSPERTSPPDSSVIVTLLDQAAKSNDDLDVSESKGCMEEKPQEVQTSRNVESIAEQMENPDLKNVGSSTGEKNERTSVAGTVRKCWPNRVAKEQISRRLDGNQYLFLPPNRYIFHGAEVYSDSEDDVLSSSSCGSNSDSGTCQSPSLEEPMEDESEIEEFYNGLEDEPDVPERAGGAGFGTDGDDQEAINEAISVKQEVTDMNYPSNKS
Relative kcat/Km (relative to AcTGG(AcK)APRK = 1) [1]: 0.64 | kcat/Km [2]: 3630 M⁻¹ s⁻¹ | on-bead deacetylation, biotin and streptavidin quantum dot fluorescence, among the 45 brightest beads [3]: hits from the SIRT1 combinatorial library screen | on-bead deacetylation, biotin and streptavidin quantum dot fluorescence, among the 45 brightest beads [4]: hits from the SIRT1 combinatorial library screen | on-bead deacetylation, biotin and streptavidin quantum dot fluorescence, among the 45 brightest beads [5]: hits from the SIRT1 combinatorial library screen | on-bead deacetylation, biotin and streptavidin quantum dot fluorescence, among the 45 brightest beads [6]: hits from the SIRT1 combinatorial library screen | Relative kcat/Km (relative to AcTGG(AcK)APRK = 1) [7]: 0.68 | Relative kcat/Km (relative to AcTGG(AcK)APRK = 1) [8]: 1 | on-bead deacetylation, biotin and streptavidin quantum dot fluorescence, among the 45 brightest beads [9]: hits from the SIRT1 combinatorial library screen | on-bead deacetylation, biotin and streptavidin quantum dot fluorescence, among the 45 brightest beads [10]: hits from the SIRT1 combinatorial library screen | on-bead deacetylation, biotin and streptavidin quantum dot fluorescence, among the 45 brightest beads [11]: hits from the SIRT1 combinatorial library screen | on-bead deacetylation, biotin and streptavidin quantum dot fluorescence, among the 45 brightest beads [12]: hits from the SIRT1 combinatorial library screen | on-bead deacetylation, biotin and streptavidin quantum dot fluorescence, among the 45 brightest beads [13]: hits from the SIRT1 combinatorial library screen | on-bead deacetylation, biotin and streptavidin quantum dot fluorescence, among the 45 brightest beads [14]: hits from the SIRT1 combinatorial library screen | on-bead deacetylation, biotin and streptavidin quantum dot fluorescence, among the 45 brightest beads [15]: hits from the SIRT1 combinatorial library screen | kcat/Km [16]: 3290 M⁻¹ s⁻¹ | kcat/Km [17]: 0.00237 M⁻¹ s⁻¹ | on-bead deacetylation, biotin and streptavidin quantum dot fluorescence, among the 45 brightest beads [18]: hits from the SIRT1 combinatorial library screen | kcat/Km [19]: 0.00154 M⁻¹ s⁻¹ | on-bead deacetylation, biotin and streptavidin quantum dot fluorescence, among the 45 brightest beads [20]: hits from the SIRT1 combinatorial library screen | Relative kcat/Km (relative to AcTGG(AcK)APRK = 1) [21]: 0.71 | on-bead deacetylation, biotin and streptavidin quantum dot fluorescence, among the 45 brightest beads [22]: hits from the SIRT1 combinatorial library screen | on-bead deacetylation, biotin and streptavidin quantum dot fluorescence, among the 45 brightest beads [23]: hits from the SIRT1 combinatorial library screen | on-bead deacetylation, biotin and streptavidin quantum dot fluorescence, among the 45 brightest beads [24]: hits from the SIRT1 combinatorial library screen | on-bead deacetylation, biotin and streptavidin quantum dot fluorescence, among the 45 brightest beads [25]: hits from the SIRT1 combinatorial library screen | Relative kcat/Km (relative to AcTGG(AcK)APRK = 1) [26]: 1.61 | on-bead deacetylation, biotin and streptavidin quantum dot fluorescence, among the 45 brightest beads [27]: hits from the SIRT1 combinatorial library screen | on-bead deacetylation, biotin and streptavidin quantum dot fluorescence, among the 45 brightest beads [28]: hits from the SIRT1 combinatorial library screen | on-bead deacetylation, biotin and streptavidin quantum dot fluorescence, among the 45 brightest beads [29]: hits from the SIRT1 combinatorial library screen | Relative kcat/Km (relative to AcTGG(AcK)APRK = 1) [30]: 1.01 | Relative kcat/Km (relative to AcTGG(AcK)APRK = 1) [31]: 0.54 | on-bead deacetylation, biotin and streptavidin quantum dot fluorescence, among the 45 brightest beads [32]: hits from the SIRT1 combinatorial library screen | kcat/Km [33]: 0.0147 M⁻¹ s⁻¹ | kcat/Km [34]: 3110 M⁻¹ s⁻¹ | on-bead deacetylation, biotin and streptavidin quantum dot fluorescence, among the 45 brightest beads [35]: hits from the SIRT1 combinatorial library screen | Relative kcat/Km (relative to AcTGG(AcK)APRK = 1) [36]: 1.72 | on-bead deacetylation, biotin and streptavidin quantum dot fluorescence, among the 45 brightest beads [37]: hits from the SIRT1 combinatorial library screen | Relative kcat/Km (relative to AcTGG(AcK)APRK = 1) [38]: 0.67 | kcat/Km [39]: 8360 M⁻¹ s⁻¹ | on-bead deacetylation, biotin and streptavidin quantum dot fluorescence, among the 45 brightest beads [40]: hits from the SIRT1 combinatorial library screen | on-bead deacetylation, biotin and streptavidin quantum dot fluorescence, among the 45 brightest beads [41]: hits from the SIRT1 combinatorial library screen | on-bead deacetylation, biotin and streptavidin quantum dot fluorescence, among the 45 brightest beads [42]: hits from the SIRT1 combinatorial library screen | kcat/Km [43]: 5320 M⁻¹ s⁻¹ | on-bead deacetylation, biotin and streptavidin quantum dot fluorescence, among the 45 brightest beads [44]: hits from the SIRT1 combinatorial library screen | on-bead deacetylation, biotin and streptavidin quantum dot fluorescence, among the 45 brightest beads [45]: hits from the SIRT1 combinatorial library screen | on-bead deacetylation, biotin and streptavidin quantum dot fluorescence, among the 45 brightest beads [46]: hits from the SIRT1 combinatorial library screen | on-bead deacetylation, biotin and streptavidin quantum dot fluorescence, among the 45 brightest beads [47]: hits from the SIRT1 combinatorial library screen | on-bead deacetylation, biotin and streptavidin quantum dot fluorescence, among the 45 brightest beads [48]: hits from the SIRT1 combinatorial library screen | kcat/Km [49]: 0.00139 M⁻¹ s⁻¹ | kcat/Km [50]: ≥ 2470 M⁻¹ s⁻¹ | kcat/Km [51]: 0.00161 M⁻¹ s⁻¹ | fold preference in catalytic activity over WP(AcK)QQ [52]: QP(AcK)QI is favored over WP(AcK)QQ by 18-fold | kcat/Km [52]: 0.0272 M⁻¹ s⁻¹ | Relative kcat/Km (relative to AcTGG(AcK)APRK = 1) [53]: 0.8 | fold difference in catalytic activity against WP(AcK)QQ [54]: 7 fold | kcat/Km [54]: 0.00723 M⁻¹ s⁻¹ | on-bead deacetylation, biotin and streptavidin quantum dot fluorescence, among the 45 brightest beads [55]: hits from the SIRT1 combinatorial library screen | on-bead deacetylation, biotin and streptavidin quantum dot fluorescence, among the 45 brightest beads [56]: hits from the SIRT1 combinatorial library screen
